One block for each binder: values may come before it.
Tests used:
WT MST4 (human) = WT MST4 (human) (UniProt Q9P289)
MST4 V165F (human) = MST4 V165F (human) (UniProt Q9P289)
WT PAK4 catalytic domain [1] = target: T1, WT PAK4 catalytic domain (human, UniProt O96013 286-591, phosphoserine at 474 (activation loop, as seen in the structures)); test: crystal structure; cocrystals of PAK4 with PAKtide-S(L), 1.7 M ammonium sulfate, 15% PEG400, 0.1 M Tris-HCl (pH 8.0); settings: both partners purified
T1 construct: residues built in the models: 300-589 (4JDH, 4JDI) and 291-591 (2Q0N); The construct of PDB 2Q0N may have other limits than that of 4JDH/4JDI

WT PAK4 catalytic domain [2] = target: T1, WT PAK4 catalytic domain; test: crystal structure; WT PAK4 crystals grown by hanging drop vapor diffusion against 0.1 M Tris-HCl (pH 7.5), 1.5-2.0 M NaOAc at room temperature and soaked with peptides; settings: both partners purified
[3] = target: T2, PAK4 F461V catalytic domain (human, UniProt O96013 286-591, F461V, phosphoserine at 474 (activation loop, as seen in the structures)); test: crystal structure; PAK4 F461V cocrystals with peptide, hanging drop vapor diffusion, 0.1 M Tris-HCl (pH 7.5), 1.5-2.0 M NaOAc at room temperature; settings: both partners purified
T2 construct: residues built in the models: 300-589; also called F461V mutant PAK4

WT PAK4 catalytic domain [4] = target: T1, WT PAK4 catalytic domain
[5] = target: T2, PAK4 F461V catalytic domain

T1 sequence (O96013 286-591): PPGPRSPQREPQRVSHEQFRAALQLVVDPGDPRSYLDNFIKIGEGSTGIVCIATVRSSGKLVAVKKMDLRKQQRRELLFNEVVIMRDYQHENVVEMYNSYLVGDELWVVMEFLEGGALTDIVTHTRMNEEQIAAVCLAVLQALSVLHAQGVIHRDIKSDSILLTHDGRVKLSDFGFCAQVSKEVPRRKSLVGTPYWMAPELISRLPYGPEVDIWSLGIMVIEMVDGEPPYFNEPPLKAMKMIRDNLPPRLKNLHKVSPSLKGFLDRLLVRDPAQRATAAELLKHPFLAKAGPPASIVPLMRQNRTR
MST4 V165F (human), sequence (Q9P289 whole entry V165F, the tested form may be a part): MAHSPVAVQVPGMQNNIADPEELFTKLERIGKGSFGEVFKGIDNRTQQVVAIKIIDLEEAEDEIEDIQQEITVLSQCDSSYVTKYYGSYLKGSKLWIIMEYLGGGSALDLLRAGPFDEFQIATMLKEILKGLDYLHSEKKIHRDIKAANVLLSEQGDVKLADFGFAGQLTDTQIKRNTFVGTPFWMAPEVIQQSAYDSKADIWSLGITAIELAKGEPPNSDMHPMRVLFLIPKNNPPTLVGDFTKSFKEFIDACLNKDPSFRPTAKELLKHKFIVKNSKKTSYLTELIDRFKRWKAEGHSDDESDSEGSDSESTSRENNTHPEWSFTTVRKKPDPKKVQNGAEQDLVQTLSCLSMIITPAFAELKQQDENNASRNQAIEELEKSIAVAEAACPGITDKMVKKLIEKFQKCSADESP
T2 sequence (O96013 286-591 F461V): as the sequence (O96013 286-591) above, with F176V counted along it
WT MST4 (human), sequence (Q9P289 whole entry): as the sequence (Q9P289 whole entry V165F, the tested form may be a part) above, with F165V counted along it

B1: MST4 substrate peptide … (X = Ser) (peptide)
peptide: NKGYNSLRRKK
Km for phosphorylation of the peptide (radiolabel filter binding kinase assay) (WT MST4 (human)): 21.7 µM
Km for phosphorylation of the peptide (radiolabel filter binding kinase assay) (MST4 V165F (human)): 360 µM

B2: MST4 substrate peptide … (X = Thr) (peptide)
peptide: NKGYNTLRRKK
Km for phosphorylation of the peptide (radiolabel filter binding kinase assay) (WT MST4 (human)): 14 µM
Km for phosphorylation of the peptide (radiolabel filter binding kinase assay) (MST4 V165F (human)): 390 µM

Next, values leading:

binding result (WT PAK4 catalytic domain [1]): binds
B3: PAKtide-S(L) (peptide)
peptide: RRRRRSWYFDG
notes: longer consensus peptide substrate of PAK4, phosphoacceptor Ser (P0); also called longer version of the consensus peptide; source: synthetic peptide

binding result (WT PAK4 catalytic domain [2]): binds
binding result [3]: binds
B4: PAKtide-S (peptide)
peptide: RRRRSWY
notes: consensus peptide substrate of PAK4, phosphoacceptor Ser (P0); also called PAK4 consensus peptide substrate with Ser phosphoacceptor (short form used for crystals); source: synthetic peptide

Km for phosphorylation of the peptide (radiolabel filter binding kinase assay) (WT PAK4 catalytic domain [4]): 280 µM
Km for phosphorylation of the peptide (radiolabel filter binding kinase assay) [5]: 129 µM
B5: PAK4 substrate peptide … (X = Ser) (peptide)
peptide: GGRRRRRSWYFGGGK

From paper PMC3898841, “Identification of a Major Determinant for Serine-Threonine Kinase Phosphoacceptor Specificity” (Molecular Cell, 2014)
